Experiments:
[1] = target: T1, TLE-modified GLP-1 (7-37) analog
T1 chain: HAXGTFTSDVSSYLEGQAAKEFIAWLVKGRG

[2] = target: T2, GLP-1 (BM)
T2 chain: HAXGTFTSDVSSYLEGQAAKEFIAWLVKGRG

[3] = target: T3, GLP-1 (7-37)
T3 chain: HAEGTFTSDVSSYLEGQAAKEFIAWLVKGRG

[4] = target: T4, GLP-1 (3DMA)
T4 chain: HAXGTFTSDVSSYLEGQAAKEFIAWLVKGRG

B1: human DPP IV (protein)
chain: SRKTYTLTDYLKNTYRLKLYSLRWISDHEYLYKQENNILVFNAEYGNSSVFLENSTFDEFGHSINDYSISPDGQFILLEYNYVKQWRHSYTASYDIYDLNKRQLITEERIPNNTQWVTWSPVGHKLAYVWNNDIYVKIEPNLPSYRITWTGKEDIIYNGITDWVYEEEVFSAYSALWWSPNGTFLAYAQFNDTEVPLIEYSFYSDESLQYPKTVRVPYPKAGAVNPTVKFFVVNTDSLSSVTNATSIQITAPASMLIGDHYLCDVTWATQERISLQWLRRIQNYSVMDICDYDESSGRWNCLVARQHIEMSTTGWVGRFRPSEPHFTLDGNSFYKIISNEEGYRHICYFQIDKKDCTFITKGTWEVIGIEALTSDYLYYISNEYKGMPGGRNLYKIQLSDYTKVTCLSCELNPERCQYYSVSFSKEAKYYQLRCSGPGLPLYTLHSSVNDKGLRVLEDNSALDKMLQNVQMPSKKLDFIILNETKFWYQMILPPHFDKSKKYPLLLDVYAGPCSQKADTVFRLNWATYLASTENIIVASFDGRGSGYQGDKIMHAINRRLGTFEVEDQIEAARQFSKMGFVDNKRIAIWGWSYGGYVTSMVLGSGSGVFKCGIAVAPVSRWEYYDSVYTERYMGLPTPEDNLDHYRNSTVMSRAENFKQVEYLLIHGTADDNVHFQQSAQISKALVDVGVDFQAMWYTDEDHGIASSTAHQHIYTHMSHFIKQCFSLP
[1]
  cleavage of the peptide by the enzyme, HPLC/MS after two hours: TLE-modified GLP-1 is resistant to degradation by DPP IV
[2]
  cleavage of the peptide by the enzyme, HPLC/MS: both GLP-1 (3DMA) and GLP-1 (BM) were resistant to cleavage by DPP IV in comparison to native GLP-1
[3]
  cleavage of the peptide by the enzyme, HPLC/MS after two hours: treatment with DPP IV resulted in a time dependent degradation of GLP-1
[4]
  cleavage of the peptide by the enzyme, HPLC/MS: both GLP-1 (3DMA) and GLP-1 (BM) were resistant to cleavage by DPP IV in comparison to native GLP-1

From patent US20170246255
